# Measured values from patent US20250002610A1 (Genmab, published 2025).
# T1: human DR4 (Death Receptor 4), cell surface expressed on human tumor cell lines (human, UniProt O00220 24-468)
# T1 construct: also called TNFRSF10A; TRAIL-R1
# T1 sequence: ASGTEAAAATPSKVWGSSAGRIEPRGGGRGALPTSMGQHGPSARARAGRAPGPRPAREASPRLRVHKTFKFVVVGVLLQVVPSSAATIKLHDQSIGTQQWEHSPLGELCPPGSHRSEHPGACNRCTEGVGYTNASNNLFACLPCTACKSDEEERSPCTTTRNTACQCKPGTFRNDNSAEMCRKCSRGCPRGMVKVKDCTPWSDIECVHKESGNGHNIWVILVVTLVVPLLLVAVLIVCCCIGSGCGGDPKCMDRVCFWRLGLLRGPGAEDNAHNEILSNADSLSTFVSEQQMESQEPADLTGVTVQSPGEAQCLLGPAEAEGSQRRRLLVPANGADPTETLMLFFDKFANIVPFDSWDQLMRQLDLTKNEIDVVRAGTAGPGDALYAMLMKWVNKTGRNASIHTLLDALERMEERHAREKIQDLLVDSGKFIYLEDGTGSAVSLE
# B1: BisG1-FAPα-FERL/DR4-FERR (bispecific antibody, human IgG1, kappa, lambda)
# heavy 1: EVQLLESGGGLVQPGGSPRLSCEASGFTFSSYALSWVRQAPGKGLEWVSAISGSGGGRYYADSVKGRFTISRDNSKNTLFLQMNSLRAEDTAVYYCAKEGYSSSGTYWDHWGQGTLVTVSSASTKGPSVFPLAPSSKSTSGGTAALGCLVKDYFPEPVTVSWNSGALTSGVHTFPAVLQSSGLYSLSSVVTVPSSSLGTQTYICNVNHKPSNTKVDKRVEPKSCDKTHTCPPCPAPEFERGPSVFLFPPKPKDTLMISRTPEVTCVVVDVSHEDPEVKFNWYVDGVEVHNAKTKPREEQYNSTYRVVSVLTVLHQDWLNGKEYKCKVSNKALPAPIEKTISKAKGQPREPQVYTLPPSREEMTKNQVSLTCLVKGFYPSDIAVEWESNGQPENNYKTTPPVLDSDGSFLLYSKLTVDKSRWQQGNVFSCSVMHEALHNHYTQKSLSLSPG
# light 1: AIQMTQSPSSVSASVGDRVTITCRASQGVSSWLAWYQQKPGRAPKLLIYVASTLQSGVPSRFSGSGSGTDFTLTINSLQPEDFATYYCQQANSFPPTFGQGTRLEMKRTVAAPSVFIFPPSDEQLKSGTASVVCLLNNFYPREAKVQWKVDNALQSGNSQESVTEQDSKDSTYSLSSTLTLSKADYEKHKVYACEVTHQGLSSPVTKSFNRGEC
# heavy 2: QVQLQESGPGLVKPSGTLSLTCAVSGGSISSYSWWSWIRQPPGKGLEWIGELYHSGSTNYNPSLKSRVTISVDKSKNQFSLKLRSVTAADTAVYYCVRGVATIDYWGQGTLVTVSSASTKGPSVFPLAPSSKSTSGGTAALGCLVKDYFPEPVTVSWNSGALTSGVHTFPAVLQSSGLYSLSSVVTVPSSSLGTQTYICNVNHKPSNTKVDKRVEPKSCDKTHTCPPCPAPEFERGPSVFLFPPKPKDTLMISRTPEVTCVVVDVSHEDPEVKFNWYVDGVEVHNAKTKPREEQYNSTYRVVSVLTVLHQDWLNGKEYKCKVSNKALPAPIEKTISKAKGQPREPQVYTLPPSREEMTKNQVSLTCLVKGFYPSDIAVEWESNGQPENNYKTTPPVLDSDGSFFLYSRLTVDKSRWQQGNVFSCSVMHEALHNHYTQKSLSLSPG
# light 2: QSALTQPPSASGSPGQSVTISCTGTSSDVGGYNFVSWYQQDPGKAPKLLIYEVTKRPSGVPDRFSGSKSGNTASLTVSGLQAEDEADYYCSSYAGSNNVMFGGGTKLTVLGQPKAAPSVTLFPPSSEELQANKATLVCLISDFYPGAVTVAWKADSSPVKAGVETTTPSKQSNNKYAASSYLSLTPEQWKSHRSYSCQVTHEGSTVEKTVAPTECS
# notes: Human IgG1 bispecific made by controlled Fab-arm exchange of IgG1-FAPα-FERL and IgG1-DR4-FERR; monovalent for FAPα and for DR4; also called GEN1057
# B2: IgG1-b12 (antibody)
# heavy: not shown
# light: EIVLTQSPGTLSLSPGERATFSCRSSHSIRSRRVAWYQHKPGQAPRLVIHGVSNRASGISDRFSGSGSGTDFTLTITRVEPEDFALYYCQVYGASSYTFGQGTKLERKRTVAAPSVFIFPPSDEQLKSGTASVVCLLNNFYPREAKVQWKVDNALQSGNSQESVTEQDSKDSTYSLSSTLTLSKADYEKHKVYACEVTHQGLSSPVTKSFNRGEC
# notes: HIV gp120 antibody b12 with wild-type IgG1 Fc; also called IgG-b12
# Assays:
# [1] = target: T1, human DR4 (Death Receptor 4), cell …; test: flow cytometry on MDA-MB-231 cells (endogenous DR4), antibody incubated at 37 °C, gMFI PE
# Description: Binding of C1q to membrane-bound BisG1-FAPα-FERL/DR4-FERR was assessed by flow cytometry. MDA-MB-231 cells were harvested as described in Example 3, plated (50,000 cells/well) in round-bottom 96-well plates and incubated with a concentration range of BisG1-FAPα-FERL/DR4-FERR or IgG1-b12-FER control antibody (0.003-30 μg/mL in threefold increments) at 37° C. for 30 min. To assess C1q binding, normal human serum (NHS) (Sanquin, final concentration 20%) was added as a source of C1q and the mixture was incubated at 4° C. for 45 min. Cells were washed twice with FACS buffer (PBS [Lonza, Cat. #BE17-517Q] supplemented with 0.1% [w/v] BSA [Roche, Cat. #10735086001] and 0.02% [w/v] sodium azide [NaN3; bioWORLD, Cat. #41920044-3]) and subsequently incubated with FITC-conjugated rabbit anti-human C1q antibody (DAKO, Cat. #F0254; 1:100 in FACS buffer) at 4° C. for 30 min, protected from light. Within the same experiment, binding of the DR4-antibodies to the MDA-MB-231 cells was confirmed in parallel samples after the incubation with serial dilutions of the tested antibodies.
# [2] = target: T2, FcγRIa (CD64 Protein, Human, Recombinant (ECD, His Tag)) (human, UniProt P12314 16-292); test: SPR (Biacore 8K), His-tagged FcγRIa captured on an anti-His chip, antibody as analyte, endpoint response against concentration
# T2 construct: extracellular domain; Bought reagent; not shown: His tag
# T2 sequence (P12314 16-292): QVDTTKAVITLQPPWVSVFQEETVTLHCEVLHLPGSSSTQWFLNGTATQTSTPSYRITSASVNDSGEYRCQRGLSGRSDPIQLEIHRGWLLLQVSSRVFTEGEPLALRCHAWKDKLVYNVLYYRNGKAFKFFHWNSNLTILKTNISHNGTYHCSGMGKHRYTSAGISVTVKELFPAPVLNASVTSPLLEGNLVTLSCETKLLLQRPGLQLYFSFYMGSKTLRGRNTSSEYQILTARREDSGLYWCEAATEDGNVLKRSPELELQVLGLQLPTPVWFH
# Description: Binding of BisG1-FAPα-FERL/DR4-FERR to immobilized human His-tagged FcγRs and FcRn was analyzed by SPR using a Biacore 8K SPR system (Cytiva). To this end, anti-His antibodies were covalently immobilized on the surface of Biacore Series S Sensor Chip CM5 (Cytiva, Cat. #29104988) using the Amine Coupling Kit (Cytiva, Cat. #BR100050) and a His Capture Kit (Cytiva, Cat. #29234602) according to the manufacturer's instructions. To assess antibody binding to immobilized human FcγRs, aliquots of the recombinant His-tagged FcγR proteins (Table 24) were diluted in HBS EP+Buffer pH 7.4 (Cytiva, Cat. #BR100669) and used to capture the FcγR proteins on the surface of the anti-His antibody-coated sensors using a flow rate of 10 μL/min and a contact time of 60 s. Captured levels ranged from 434 to 592 RU. After three start-up cycles of HBS-EP+Buffer, concentration ranges of BisG1-FAPα-FERL/DR4-FERR or IgG1-b12 antibodies (Table 25) were injected to generate binding curves on FcγR-captured sensors (active surface). For each antibody sample, a parallel flow cell without captured FcγRs was included (reference surface), which was used for RU background correction.
# All sensorgrams were subtracted by the signal of the third start-up cycle with buffer only (mock analyte). […]
binder,measurement,setting,value
B1,EC50 (read off the curve),[1],~0.5 µg/mL
B2,binding result,[2],binds
